{
  "source": "the supplement of paper PMC6757056",
  "parents": {"B1": {"name": "library; a variant is named by its letters at N, in order (parent)", "chain": "GCUGUCACCGGUGUAUUACCCUAGUGGUCGACCGGUCUGAUGAGUCUNNNNNNAGACGAAACAGC"}},
  "key": {"[1]": {"variants_of": "B1", "assay": "FACS-Seq fitted mean relative fluorescence mCherry/BFP without ligand (log10 relative fluorescence); ligand: hypoxanthine (xanthine aptamer); higher = higher reporter protein expression", "settings": "HEK293T, ligand present: no", "procedure": "(§1)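 Hammerhead (sTRSV) ribozyme switch libraries with a ligand aptamer grafted on stem I and a randomized N4-6 loop II, cloned into the 3' UTR of mCherry and transiently transfected into HEK293T cells; RNA-Seq 72 h post transfection with ligand added 1 h before transfection; RNA read count / plasmid DNA read count normalized to the non-cleaving sTRSVctl (x100), log10; sequences with >100 DNA reads. FACS-Seq: lentiviral library sorted into 6 bins after 48 h ligand, log-normal fit mean of mCherry/BFP scaled to controls. Printed sequences are partial switch sequences.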"}, "[2]": {"variants_of": "B1", "assay": "normalized RNA/DNA level with ligand (relative to sTRSVctl = 100) (log10 (% of sTRSVctl)); ligand: hypoxanthine (xanthine aptamer); higher = less ribozyme self-cleavage, higher mRNA level", "settings": "ligand concentration (+) RNA-Seq: 5 mM, HEK293T, reporter: mCherry (pCS4076), ligand present: yes", "procedure": "as §1"}, "[3]": {"variants_of": "B1", "assay": "normalized RNA/DNA level without ligand (relative to sTRSVctl = 100) (log10 (% of sTRSVctl)); ligand: hypoxanthine (xanthine aptamer); higher = less ribozyme self-cleavage, higher mRNA level", "settings": "HEK293T, reporter: mCherry (pCS4076), ligand present: no", "procedure": "as §1"}, "[4]": {"variants_of": "B1", "assay": "FACS-Seq fitted mean relative fluorescence mCherry/BFP with ligand (log10 relative fluorescence); ligand: hypoxanthine (xanthine aptamer); ligand concentration (+) FACS-Seq: 5 mM; higher = higher reporter protein expression", "settings": "HEK293T, ligand present: yes", "procedure": "as §1"}},
  "note": "± gives the standard deviation of the averaged measurements.",
  "data": [
    {"variant": "GCUGUCACCGGUGUAUUACCCUAGUGGUCGACCGGUCUGAUGAGUCUGAAACUAGACGAAACAGC", "note": "[GAAACU]", "values": [
      {"measurement": "FACS-Seq fitted mean (log10)", "setting": "[1]", "value": "0.54 ± 0.047"},
      {"measurement": "normalized RNA/DNA level with ligand (log10)", "setting": "[2]", "value": "1.92 ± 0.042"},
      {"measurement": "normalized RNA/DNA level without ligand (log10)", "setting": "[3]", "value": "1.89 ± 0.039"},
      {"measurement": "FACS-Seq fitted mean (log10)", "setting": "[4]", "value": "0.481 ± 0.042"}
    ]},
    {"variant": "GCUGUCACCGGUGUAUUACCCUAGUGGUCGACCGGUCUGAUGAGUCUGAAACCAGACGAAACAGC", "note": "[GAAACC]", "values": [
      {"measurement": "FACS-Seq fitted mean (log10)", "setting": "[1]", "value": "0.401 ± 0.023"},
      {"measurement": "normalized RNA/DNA level with ligand (log10)", "setting": "[2]", "value": "1.897 ± 0.011"},
      {"measurement": "normalized RNA/DNA level without ligand (log10)", "setting": "[3]", "value": "1.85 ± 0.022"},
      {"measurement": "FACS-Seq fitted mean (log10)", "setting": "[4]", "value": "0.469 ± 0.033"}
    ]},
    {"variant": "GCUGUCACCGGUGUAUUACCCUAGUGGUCGACCGGUCUGAUGAGUCUGAAACGAGACGAAACAGC", "note": "[GAAACG]", "values": [
      {"measurement": "FACS-Seq fitted mean (log10)", "setting": "[1]", "value": "0.287 ± 0.024"},
      {"measurement": "normalized RNA/DNA level with ligand (log10)", "setting": "[2]", "value": "1.88 ± 0.023"},
      {"measurement": "normalized RNA/DNA level without ligand (log10)", "setting": "[3]", "value": "1.51 ± 0.048"},
      {"measurement": "FACS-Seq fitted mean (log10)", "setting": "[4]", "value": "0.561 ± 0.048"}
    ]},
    {"variant": "GCUGUCACCGGUGUAUUACCCUAGUGGUCGACCGGUCUGAUGAGUCUAAAACUAGACGAAACAGC", "note": "[AAAACU]", "values": [
      {"measurement": "FACS-Seq fitted mean (log10)", "setting": "[1]", "value": "0.313 ± 0.03"},
      {"measurement": "normalized RNA/DNA level with ligand (log10)", "setting": "[2]", "value": "1.91 ± 0.093"},
      {"measurement": "normalized RNA/DNA level without ligand (log10)", "setting": "[3]", "value": "1.8616 ± 0.00097"},
      {"measurement": "FACS-Seq fitted mean (log10)", "setting": "[4]", "value": "0.4 ± 0.12"}
    ]},
    {"variant": "GCUGUCACCGGUGUAUUACCCUAGUGGUCGACCGGUCUGAUGAGUCUAAAACGAGACGAAACAGC", "note": "[AAAACG]", "values": [
      {"measurement": "FACS-Seq fitted mean (log10)", "setting": "[1]", "value": "0.284 ± 0.015"},
      {"measurement": "normalized RNA/DNA level with ligand (log10)", "setting": "[2]", "value": "1.85 ± 0.053"},
      {"measurement": "normalized RNA/DNA level without ligand (log10)", "setting": "[3]", "value": "1.43 ± 0.017"},
      {"measurement": "FACS-Seq fitted mean (log10)", "setting": "[4]", "value": "0.616 ± 0.077"}
    ]},
    {"variant": "GCUGUCACCGGUGUAUUACCCUAGUGGUCGACCGGUCUGAUGAGUCUUAAAGCAGACGAAACAGC", "note": "[UAAAGC]", "values": [
      {"measurement": "FACS-Seq fitted mean (log10)", "setting": "[1]", "value": "0.687 ± 0.044"},
      {"measurement": "normalized RNA/DNA level with ligand (log10)", "setting": "[2]", "value": "1.92 ± 0.024"},
      {"measurement": "normalized RNA/DNA level without ligand (log10)", "setting": "[3]", "value": "1.799 ± 0.0067"},
      {"measurement": "FACS-Seq fitted mean (log10)", "setting": "[4]", "value": "0.694 ± 0.029"}
    ]},
    {"variant": "GCUGUCACCGGUGUAUUACCCUAGUGGUCGACCGGUCUGAUGAGUCUAAAAGGAGACGAAACAGC", "note": "[AAAAGG]", "values": [
      {"measurement": "FACS-Seq fitted mean (log10)", "setting": "[1]", "value": "0.163 ± 0.004"},
      {"measurement": "normalized RNA/DNA level with ligand (log10)", "setting": "[2]", "value": "1.78 ± 0.06"},
      {"measurement": "normalized RNA/DNA level without ligand (log10)", "setting": "[3]", "value": "1.26 ± 0.027"},
      {"measurement": "FACS-Seq fitted mean (log10)", "setting": "[4]", "value": "0.725 ± 0.056"}
    ]},
    {"variant": "GCUGUCACCGGUGUAUUACCCUAGUGGUCGACCGGUCUGAUGAGUCUAAAAGAAGACGAAACAGC", "note": "[AAAAGA]", "values": [
      {"measurement": "FACS-Seq fitted mean (log10)", "setting": "[1]", "value": "0.199 ± 0.0066"},
      {"measurement": "normalized RNA/DNA level with ligand (log10)", "setting": "[2]", "value": "1.91 ± 0.053"},
      {"measurement": "normalized RNA/DNA level without ligand (log10)", "setting": "[3]", "value": "1.67 ± 0.025"},
      {"measurement": "FACS-Seq fitted mean (log10)", "setting": "[4]", "value": "0.556 ± 0.061"}
    ]},
    {"variant": "GCUGUCACCGGUGUAUUACCCUAGUGGUCGACCGGUCUGAUGAGUCUGAAAGCAGACGAAACAGC", "note": "[GAAAGC]", "values": [
      {"measurement": "FACS-Seq fitted mean (log10)", "setting": "[1]", "value": "0.368 ± 0.056"},
      {"measurement": "normalized RNA/DNA level with ligand (log10)", "setting": "[2]", "value": "1.86 ± 0.028"},
      {"measurement": "normalized RNA/DNA level without ligand (log10)", "setting": "[3]", "value": "1.39 ± 0.084"},
      {"measurement": "FACS-Seq fitted mean (log10)", "setting": "[4]", "value": "0.776 ± 0.043"}
    ]},
    {"variant": "GCUGUCACCGGUGUAUUACCCUAGUGGUCGACCGGUCUGAUGAGUCUGAAAGAAGACGAAACAGC", "note": "[GAAAGA]", "values": [
      {"measurement": "FACS-Seq fitted mean (log10)", "setting": "[1]", "value": "0.507 ± 0.093"},
      {"measurement": "normalized RNA/DNA level with ligand (log10)", "setting": "[2]", "value": "1.92 ± 0.029"},
      {"measurement": "normalized RNA/DNA level without ligand (log10)", "setting": "[3]", "value": "1.71 ± 0.033"},
      {"measurement": "FACS-Seq fitted mean (log10)", "setting": "[4]", "value": "0.581 ± 0.065"}
    ]},
    {"variant": "GCUGUCACCGGUGUAUUACCCUAGUGGUCGACCGGUCUGAUGAGUCUGAAAGGAGACGAAACAGC", "note": "[GAAAGG]", "values": [
      {"measurement": "FACS-Seq fitted mean (log10)", "setting": "[1]", "value": "0.141 ± 0.013"},
      {"measurement": "normalized RNA/DNA level with ligand (log10)", "setting": "[2]", "value": "1.74 ± 0.029"},
      {"measurement": "normalized RNA/DNA level without ligand (log10)", "setting": "[3]", "value": "1.2 ± 0.07"},
      {"measurement": "FACS-Seq fitted mean (log10)", "setting": "[4]", "value": "0.614 ± 0.017"}
    ]}
  ]
}
